Measurements published in patent US20170190787A1 (INSERM INSTITUT NATIONAL DE LA SANT ET DE LA RECHERCHE M …, published 2017).

B1: d2-labeled anti-EGFR single domain antibody E10 (VHH)
VHH: QVQLQESGGGLAQAGGSLRLSCAASGRTLSSYDMGWFRQAPGKEREFVTAINWGDLSTYYADSVKGRFTISRDNAKNTVYLQMNSLKPEDTAVYYCAARLRYTVSDPIFSRPDRYNYWGQGTQVTVSS
modifications: d2 fluorochrome (d2-NHS) on lysine residues, positions not given
notes: E10 chemically coupled to the acceptor fluorochrome d2 by NHS chemistry; also called E10-d2; E10-D2; not shown: His tag
B2: anti-EGFR single domain antibody E10 (VHH, not shown: small tags and cut ends)
VHH: QVQLQESGGGLAQAGGSLRLSCAASGRTLSSYDMGWFRQAPGKEREFVTAINWGDLSTYYADSVKGRFTISRDNAKNTVYLQMNSLKPEDTAVYYCAARLRYTVSDPIFSRPDRYNYWGQGTQVTVSS
notes: Llama VHH produced in E. coli, His-tagged; also called sdAb E10; unlabeled E10
B3: biparatopic single domain antibody D4E (D10 - 4x(G4S) linker - E10) (bispecific antibody)
chain: EVQLQESGGGLVQAGGSLRLSCAVSISRTIFSLYAMEWYRQPPGKQRDLVARIYRSGDTNYADSVKGRFTISRDNAKNTVYLQMNSLKPEDTGVYYCNSPAQDWPWGQGTQVTVSSAAAGGGGSGGGGSGGGGSGGGGSMAQVQLQESGGGLAQAGGSLRLSCAASGRTLSSYDMGWFRQAPGKEREFVTAINWGDLSTYYADSVKGRFTISRDNAKNTVYLQMNSLKPEDTAVYYCAARLRYTVSDPIFSRPDRYNYWGQGTQVTVSSAAAEQKLISEEDLNGAAHHHHHHGS
notes: also called bisdAb D4E
B4: d2-labeled anti-EGFR single domain antibody G10 (VHH)
VHH: EVQLVESGGGLVQAGGSLRLSCAASGRTFSNYAMGWFRQAPGKEREFVAGIIWSGSRTYYADPVKGRFTISRDNAKNTVYLQMNSLNVEDTAVYYCAASMGDYDVSLASPRSWGKGTQVTVSS
modifications: d2 fluorochrome (d2-NHS) on lysine residues, positions not given
notes: G10 chemically coupled to the acceptor fluorochrome d2 by NHS chemistry; also called G10-d2; d2-labeled clone G10; not shown: His tag
B5: anti-EGFR single domain antibody G10 (VHH, not shown: small tags and cut ends)
VHH: EVQLVESGGGLVQAGGSLRLSCAASGRTFSNYAMGWFRQAPGKEREFVAGIIWSGSRTYYADPVKGRFTISRDNAKNTVYLQMNSLNVEDTAVYYCAASMGDYDVSLASPRSWGKGTQVTVSS
notes: Llama VHH produced in E. coli, His-tagged; also called sdAb G10; unlabeled G10
B6: anti-EGFR single domain antibody D10 (VHH, not shown: small tags and cut ends)
VHH: EVQLVESGGGLVQAGGSLRLSCAVSISRTIFSLYAMEWYRQPPGKQRDLVARIYRSGDTNYADSVKGRFTISRDNAKNTVYLQMNSLKPEDTGVYYCNSPAQDWPWGQGTQVTVSS
notes: Llama VHH produced in E. coli, His-tagged; also called sdAb D10; unlabeled D10
B7: d2-labeled anti-EGFR single domain antibody D10 (VHH)
VHH: EVQLVESGGGLVQAGGSLRLSCAVSISRTIFSLYAMEWYRQPPGKQRDLVARIYRSGDTNYADSVKGRFTISRDNAKNTVYLQMNSLKPEDTGVYYCNSPAQDWPWGQGTQVTVSS
modifications: d2 fluorochrome (d2-NHS) on lysine residues, positions not given
notes: D10 chemically coupled to the acceptor fluorochrome d2 by NHS chemistry; also called D10-d2; d2-labeled clone D10; not shown: His tag

Tests used:
[1] = biological target: T1, wild type EGFR on cells in the presence of EGF (ligand-activated, extended conformation) (UniProt P00533 25-1210; P01133 971-1023); assay: flow cytometry on A431 cells, d2-labeled sdAb with excess EGF
T1 construct: Receptor-ligand complex as the target: EGFR with EGF added to the cells; also called extended EGFR

[2] = biological target: T2, EGFR fused to SNAP-tag, expressed on transfected HEK293T cells (UniProt P00533 25-1210, terbium cryptate donor fluorochrome (SNAP-Tb) covalently on the SNAP-tag); assay: HTRF on EGFR-ST cells; KD in the presence of D10 as competitor
T2 construct: whole, on cells; also called EGFR-ST; ErbB1-ST; not shown: SNAP-tag and FLAG tag (Cisbio plasmid)

[3] = biological target: T2, EGFR fused to SNAP-tag, expressed on …; assay: HTRF on EGFR-ST cells; KD in the presence of G10 as competitor
[4] = biological target: T2, EGFR fused to SNAP-tag, expressed on …; assay: KD in the presence of Ab-3 as competitor; method not stated for Table 3
[5] = biological target: T3, wild type EGFR on cells (A431 cells; HEK293T or NIH/3T3 cells transfected with wild type ErbB1) (UniProt P00533 25-1210, limits assumed); assay: flow cytometry on A431 cells, d2-labeled sdAb with large excess of cetuximab
T3 construct: whole, on cells; no ligand added; also called HER1

[6] = biological target: T2, EGFR fused to SNAP-tag, expressed on …; assay: HTRF on EGFR-ST cells; KD in the presence of irrelevant sdAb as competitor
[7] = biological target: T2, EGFR fused to SNAP-tag, expressed on …; assay: KD in the presence of cetuximab as competitor; method not stated for Table 3
[8] = biological target: T2, EGFR fused to SNAP-tag, expressed on …; assay: KD in the presence of panitumumab as competitor; method not stated for Table 3
[9] = biological target: T2, EGFR fused to SNAP-tag, expressed on …; assay: HTRF on EGFR-ST transfected HEK293T cells, directly d2-labeled sdAb; apparent Kd
[10] = biological target: T2, EGFR fused to SNAP-tag, expressed on …; assay: KD in the presence of irrelevant sdAb as competitor; method not stated for Table 3
[11] = biological target: T4, ErbB2 fused to SNAP-tag, expressed on transfected HEK293T cells (UniProt P04626 23-1255, donor fluorochrome covalently on the SNAP-tag); assay: HTRF on transfected HEK293T cells, anti-His-d2 detection
T4 construct: whole, on cells; also called ErbB2-ST; not shown: SNAP-tag and FLAG tag

[12] = biological target: T5, ErbB3 fused to SNAP-tag, expressed on transfected HEK293T cells (UniProt P21860 20-1342, donor fluorochrome covalently on the SNAP-tag); assay: as above
T5 construct: whole, on cells; also called ErbB3-ST; not shown: SNAP-tag and FLAG tag

[13] = biological target: T6, ErbB4 fused to HALO-Tag, expressed on transfected HEK293T cells (UniProt Q15303 26-1308, donor fluorochrome covalently on the HALO-Tag); assay: as above
T6 construct: whole, on cells; also called ErbB4-HT; not shown: HALO-Tag and c-myc tag

[14] = biological target: T2, EGFR fused to SNAP-tag, expressed on …; assay: HTRF on EGFR-ST transfected HEK293T cells, sdAb detected with anti-His-d2; apparent Kd
[15] = biological target: T3, wild type EGFR on cells (A431 cells; …); assay: cell-based or functional assay
[16] = biological target: T1, wild type EGFR on cells in the presence …; assay: flow cytometry on A431 cells, G10-d2 in the presence of EGF
[17] = biological target: T2, EGFR fused to SNAP-tag, expressed on …; assay: HTRF on EGFR-ST cells; KD in the presence of E10 as competitor
[18] = biological target: T2, EGFR fused to SNAP-tag, expressed on …; assay: KD in the presence of m425 as competitor; method not stated for Table 3
[19] = biological target: T2, EGFR fused to SNAP-tag, expressed on …; assay: HTRF on living cells; comparison value for monovalent D10
[20] = biological target: T2, EGFR fused to SNAP-tag, expressed on …; assay: KD in the presence of irrelevant sdAb as competitor; method not stated for Table 3 (values of this column equal Table 2, HTRF on EGFR-ST)

T6 sequence (Q15303 26-1308): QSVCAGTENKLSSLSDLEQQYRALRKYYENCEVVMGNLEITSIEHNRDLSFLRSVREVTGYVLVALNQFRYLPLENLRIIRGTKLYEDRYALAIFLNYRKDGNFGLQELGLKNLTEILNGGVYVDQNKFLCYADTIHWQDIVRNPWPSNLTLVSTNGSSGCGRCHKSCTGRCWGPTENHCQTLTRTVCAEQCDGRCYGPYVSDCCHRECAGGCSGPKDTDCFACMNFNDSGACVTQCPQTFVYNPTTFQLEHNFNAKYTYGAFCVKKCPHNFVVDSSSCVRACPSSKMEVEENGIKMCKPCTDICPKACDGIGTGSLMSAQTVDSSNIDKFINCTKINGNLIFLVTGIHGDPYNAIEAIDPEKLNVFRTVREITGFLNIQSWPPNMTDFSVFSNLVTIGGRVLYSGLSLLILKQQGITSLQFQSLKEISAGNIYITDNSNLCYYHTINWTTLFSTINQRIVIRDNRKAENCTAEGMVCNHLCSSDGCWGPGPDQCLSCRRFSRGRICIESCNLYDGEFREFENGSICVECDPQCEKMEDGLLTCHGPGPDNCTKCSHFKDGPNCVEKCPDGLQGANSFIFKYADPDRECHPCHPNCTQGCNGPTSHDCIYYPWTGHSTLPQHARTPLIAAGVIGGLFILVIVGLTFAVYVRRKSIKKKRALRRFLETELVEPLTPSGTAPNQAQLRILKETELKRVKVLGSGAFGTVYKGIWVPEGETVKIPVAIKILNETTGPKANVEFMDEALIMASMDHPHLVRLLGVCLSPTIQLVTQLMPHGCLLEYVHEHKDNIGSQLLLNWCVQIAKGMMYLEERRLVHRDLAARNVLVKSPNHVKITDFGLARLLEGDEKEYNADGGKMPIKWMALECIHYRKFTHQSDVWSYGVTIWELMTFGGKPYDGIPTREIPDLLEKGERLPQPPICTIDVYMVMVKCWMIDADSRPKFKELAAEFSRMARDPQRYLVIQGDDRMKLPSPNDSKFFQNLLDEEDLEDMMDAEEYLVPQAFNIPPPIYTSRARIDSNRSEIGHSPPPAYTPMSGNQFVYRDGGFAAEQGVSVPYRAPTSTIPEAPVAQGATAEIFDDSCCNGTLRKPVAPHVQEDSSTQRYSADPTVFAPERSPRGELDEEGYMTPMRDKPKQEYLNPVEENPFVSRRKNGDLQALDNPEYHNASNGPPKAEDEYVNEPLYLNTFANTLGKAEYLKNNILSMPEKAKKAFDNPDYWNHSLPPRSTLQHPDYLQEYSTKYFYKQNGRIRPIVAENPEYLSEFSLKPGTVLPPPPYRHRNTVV

| Binder | Kd [6] | Kd [7] | Kd [8] | Kd [9] | binding result [11] | binding result [12] | binding result [13] | Kd [14] | also measured |
| --- | --- | --- | --- | --- | --- | --- | --- | --- | --- |
| B1 | 20 nM | 11 nM | 70 nM | 106 nM |  |  |  |  | binding result [1]: no binding; Kd [2]: 17 nM; Kd [3]: 17 nM; Kd [4]: 67 nM; fold increase of binding in the presence of cetuximab [5]: 2 fold; Kd [10]: 20 nM |
| B2 |  |  |  |  | no binding | no binding | no binding | 25 nM |  |
| B3 |  |  |  |  |  |  |  |  | inhibition of EGF-induced EGFR phosphorylation (FIG. 11); concentration against that of cetuximab [15]: 100 fold |
| B4 | 12 nM | 21 nM | 27 nM | 87 nM |  |  |  |  | fold increase of affinity against EGFR without EGF [16]: 8 fold; Kd [2]: 6 nM; Kd [17]: 17 nM; Kd [18]: 32 nM; Kd [10]: 12 nM |
| B5 |  |  |  |  | no binding | no binding | no binding | 15 nM |  |
| B6 |  |  |  |  | no binding | no binding | no binding | 7 nM | Kd [19]: 6 nM |
| B7 | 7 nM | 10 nM | 13 nM | 27 nM |  |  |  |  | binding result [1]: no binding; Kd [17]: 11 nM; Kd [3]: 7 nM; Kd [4]: 3 nM; Kd [18]: 14 nM; Kd [20]: 7 nM |
